EP1516629B1
Changes are numbered by the printed parent chain.

T1: rhesus CD11a (rhesus) (UniProt H9Z8N3)
T1 sequence: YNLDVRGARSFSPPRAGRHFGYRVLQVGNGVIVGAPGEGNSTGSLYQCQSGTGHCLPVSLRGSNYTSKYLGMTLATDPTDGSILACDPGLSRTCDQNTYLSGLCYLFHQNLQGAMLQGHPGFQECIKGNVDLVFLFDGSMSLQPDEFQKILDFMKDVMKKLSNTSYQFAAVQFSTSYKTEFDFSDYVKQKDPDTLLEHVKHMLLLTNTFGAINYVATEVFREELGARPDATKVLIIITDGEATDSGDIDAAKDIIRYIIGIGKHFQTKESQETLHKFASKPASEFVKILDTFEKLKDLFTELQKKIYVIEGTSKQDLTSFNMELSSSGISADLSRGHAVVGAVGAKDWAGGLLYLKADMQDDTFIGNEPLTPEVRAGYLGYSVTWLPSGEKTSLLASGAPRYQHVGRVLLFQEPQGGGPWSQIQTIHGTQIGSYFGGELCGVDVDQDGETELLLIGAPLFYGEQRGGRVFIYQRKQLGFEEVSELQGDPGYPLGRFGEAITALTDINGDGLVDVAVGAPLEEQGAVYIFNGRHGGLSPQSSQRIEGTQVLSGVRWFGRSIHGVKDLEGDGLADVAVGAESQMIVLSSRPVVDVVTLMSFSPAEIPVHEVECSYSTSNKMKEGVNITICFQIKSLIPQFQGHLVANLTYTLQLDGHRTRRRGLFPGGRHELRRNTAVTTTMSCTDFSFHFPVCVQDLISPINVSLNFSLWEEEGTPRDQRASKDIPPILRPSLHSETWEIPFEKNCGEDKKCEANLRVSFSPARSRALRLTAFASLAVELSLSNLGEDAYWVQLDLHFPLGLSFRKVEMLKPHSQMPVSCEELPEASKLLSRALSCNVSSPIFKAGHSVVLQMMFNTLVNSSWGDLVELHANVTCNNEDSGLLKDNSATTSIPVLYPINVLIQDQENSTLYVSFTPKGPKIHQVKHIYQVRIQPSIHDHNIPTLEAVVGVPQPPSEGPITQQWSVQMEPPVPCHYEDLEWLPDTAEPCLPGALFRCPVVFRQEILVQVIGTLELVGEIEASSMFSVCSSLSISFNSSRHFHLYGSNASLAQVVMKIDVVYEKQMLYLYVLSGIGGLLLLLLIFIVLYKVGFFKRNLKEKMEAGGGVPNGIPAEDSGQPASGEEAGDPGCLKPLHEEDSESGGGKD

T2: human CD11a (human) (UniProt P20701)
T2 sequence (looked up): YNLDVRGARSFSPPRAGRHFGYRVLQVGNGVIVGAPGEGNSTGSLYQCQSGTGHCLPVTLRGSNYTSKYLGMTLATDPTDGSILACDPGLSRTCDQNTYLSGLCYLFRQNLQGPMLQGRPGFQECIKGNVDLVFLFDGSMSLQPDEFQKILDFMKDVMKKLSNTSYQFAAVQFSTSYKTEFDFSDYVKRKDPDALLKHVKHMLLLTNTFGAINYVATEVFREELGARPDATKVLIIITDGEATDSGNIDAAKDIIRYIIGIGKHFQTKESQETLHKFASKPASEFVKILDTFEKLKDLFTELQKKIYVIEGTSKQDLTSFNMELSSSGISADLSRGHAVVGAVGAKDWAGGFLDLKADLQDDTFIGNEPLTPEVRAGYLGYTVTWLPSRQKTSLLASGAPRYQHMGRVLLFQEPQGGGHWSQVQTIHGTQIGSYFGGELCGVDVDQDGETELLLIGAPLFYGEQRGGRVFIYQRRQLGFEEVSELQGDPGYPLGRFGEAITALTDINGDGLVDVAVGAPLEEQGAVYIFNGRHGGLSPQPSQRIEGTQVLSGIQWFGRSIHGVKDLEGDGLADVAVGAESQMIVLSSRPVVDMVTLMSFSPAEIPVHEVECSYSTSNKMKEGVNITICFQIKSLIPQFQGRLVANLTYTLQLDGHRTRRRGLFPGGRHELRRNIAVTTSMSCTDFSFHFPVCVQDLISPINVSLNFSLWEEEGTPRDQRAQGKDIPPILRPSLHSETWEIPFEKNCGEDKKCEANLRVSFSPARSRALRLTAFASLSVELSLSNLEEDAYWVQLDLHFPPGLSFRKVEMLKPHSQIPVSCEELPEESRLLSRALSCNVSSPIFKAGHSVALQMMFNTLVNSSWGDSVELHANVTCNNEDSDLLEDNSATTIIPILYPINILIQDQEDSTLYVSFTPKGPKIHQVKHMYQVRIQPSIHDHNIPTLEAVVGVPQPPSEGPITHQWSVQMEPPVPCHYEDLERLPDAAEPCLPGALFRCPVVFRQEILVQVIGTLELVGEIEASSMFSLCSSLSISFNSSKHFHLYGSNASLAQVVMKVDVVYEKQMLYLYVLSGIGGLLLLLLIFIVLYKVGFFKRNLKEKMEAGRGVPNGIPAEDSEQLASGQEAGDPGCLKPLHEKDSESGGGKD

B1: ThrL53Ala variant IgG1 (antibody, V domains shown)
VH: EVQLVESGGGLVQPGGSLRLSCAASGYSFTGHWMNWVRQAPGKGLEWVGMIHPSDSETRYNQKFKDRFTISVDKSKNTLYLQMNSLRAEDTAVYYCARGIYFYGTTYFDYWGQGTLVTVSS
VL: DIQMTQSPSSLSASVGDRVTITCRASKTISKYLAWYQQKPGKAPKLLIYSGSALQSGVPSRFSGSGSGTDFTLTISSLQPEDFATYYCQQHNEYPLTFGQGTKVEIKR
B2: HisH52Ala variant IgG1 (antibody, V domains shown)
VH: B1 VH with H52A
VL: DIQMTQSPSSLSASVGDRVTITCRASKTISKYLAWYQQKPGKAPKLLIYSGSTLQSGVPSRFSGSGSGTDFTLTISSLQPEDFATYYCQQHNEYPLTFGQGTKVEIK
B3: ArgH58Ala variant IgG1 (antibody, V domains shown)
VH: B1 VH with R59A
VL: B2 VL
B4: H2C10 variant IgG1 (antibody, V domains shown)
VH: B1 VH with H52A, S54A, D55A, E57S
VL: B2 VL
B5: SerH55Ala variant IgG1 (antibody, V domains shown)
VH: B1 VH with S56A
VL: B2 VL
B6: H2C9 variant IgG1 (antibody, V domains shown)
VH: B1 VH with H52A, S54A, D55A, E57N
VL: B2 VL
B7: H2 variant IgG1 (antibody, V domains shown)
VH: B1 VH with H52A, S54A, S56A
VL: B2 VL
B8: AspH65Ala variant IgG1 (antibody, V domains shown)
VH: B1 VH with D66A
VL: B2 VL
B9: LysH64Ala variant IgG1 (antibody, V domains shown)
VH: B1 VH with K65A
VL: B2 VL
B10: ThrH30Ala variant IgG1 (antibody, V domains shown)
VH: B1 VH with T30A
VL: B2 VL
B11: AspH54Ala variant IgG1 (antibody, V domains shown)
VH: B1 VH with D55A
VL: B2 VL
B12: LysH62Ala variant IgG1 (antibody, V domains shown)
VH: B1 VH with K63A
VL: B2 VL
B13: GluH56Ala variant IgG1 (antibody, V domains shown)
VH: B1 VH with E57A
VL: B2 VL
B14: GluL93Ala variant IgG1 (antibody, V domains shown)
VH: B1 VH
VL: B1 VL with A53T, E93A
B15: SerH53Ala variant IgG1 (antibody, V domains shown)
VH: B1 VH with S54A
VL: B2 VL
B16: H2C7 variant IgG1 (antibody, V domains shown)
VH: B1 VH with H52A, S54A, D55A, E57A
VL: B2 VL
B17: H2A1 variant IgG1 (antibody, V domains shown)
VH: B1 VH with H52A, S54A
VL: B2 VL
B18: AspH54Gln variant IgG1 (antibody, V domains shown)
VH: B1 VH with D55Q
VL: B2 VL
B19: H2C5 variant IgG1 (antibody, V domains shown)
VH: B1 VH with H52A, S54A, D55N, E57N
VL: B2 VL
B20: H2A2 variant IgG1 (antibody, V domains shown)
VH: B1 VH with S54A, S56A
VL: B2 VL
B21: AspH54Asn variant IgG1 (antibody, V domains shown)
VH: B1 VH with D55N
VL: B2 VL
B22: GlnH61Ala variant IgG1 (antibody, V domains shown)
VH: B1 VH with Q62A
VL: B2 VL
B23: H2A3 variant IgG1 (antibody, V domains shown)
VH: B1 VH with H52A, S56A
VL: B2 VL
B24: AsnL92Ala variant IgG1 (antibody, V domains shown)
VH: B1 VH
VL: B1 VL with A53T, N92A
B25: GlyH31Ala variant IgG1 (antibody, V domains shown)
VH: B1 VH with G31A
VL: B2 VL

These binders were tested against T1, rhesus CD11a (rhesus) (assay: binding to rhesus peripheral blood lymphocytes).

Row | Var.EC50/HuIgG1 EC50 | fold better binding than HuIgG1 [fold] | Variant EC50/HulgG1 EC50 | fold improvement in binding over HuIgG1 [fold] | Binder
1 | 0.7 |  |  |  | B1
2 | 0.7 |  |  |  | B2
3 | 3.3 |  |  |  | B3
4 | 0.22 |  |  |  | B4
5 | 1.3 |  |  |  | B5
6 | 0.22 |  |  |  | B6
7 | 0.055 | 18 |  |  | B7
8 | 1.1 |  |  |  | B8
9 | 1.2 |  |  |  | B9
10 | 1.3 |  |  |  | B10
11 | 0.3 |  | 0.3 | 3 | B11
12 | 4.9 |  |  |  | B12
13 | 0.3 |  |  | 3 | B13
14 | 2.9 |  |  |  | B14
15 | 0.7 |  |  |  | B15
16 | 1.03 |  |  |  | B16
17 | 0.013 |  |  | 77 | B17
18 |  |  | 4.4 |  | B18
19 | 0.11 |  |  |  | B19
20 | 1.1 |  |  |  | B20
21 |  |  | 0.1 | 10 | B21
22 | 5.3 |  |  |  | B22
23 | 1.3 |  |  |  | B23
24 | 3.3 |  |  |  | B24
25 | 2.4 |  |  |  | B25

Each binder was assayed against T2, human CD11a (human) (assay: FACScan, Jurkat cells).

Row | Var.EC50/HuIgG1 EC50 | Variant EC50/HulgG1 EC50 | Binder
26 | 0.9 |  | B1
27 | 1.5 |  | B2
28 | 1.1 |  | B3
29 | 14.2 |  | B4
30 | 1.3 |  | B5
31 | 34.3 |  | B6
32 | 14.1 |  | B7
33 | 0.8 |  | B8
34 | 2.5 |  | B9
35 | 1.7 |  | B10
36 | 147 | 147 | B11
37 | 1.8 |  | B12
38 | 4 |  | B13
39 | 1.7 |  | B14
40 | 1.8 |  | B15
41 | 2.4 |  | B16
42 | 10.8 |  | B17
43 |  | 20 | B18
44 | 46 |  | B19
45 | 1.9 |  | B20
46 |  | 26 | B21
47 | 4.1 |  | B22
48 | 4.6 |  | B23
49 | 3.3 |  | B24
50 | 1.2 |  | B25
